Literature values, collected in paper PMC10044870.
pKd: −log10 of the molar value.

Biological target: cleaved high molecular weight kininogen (HKa) (Homo sapiens) (UniProt P01042)
Sequence (P01042 19-380, chain 1 of 2): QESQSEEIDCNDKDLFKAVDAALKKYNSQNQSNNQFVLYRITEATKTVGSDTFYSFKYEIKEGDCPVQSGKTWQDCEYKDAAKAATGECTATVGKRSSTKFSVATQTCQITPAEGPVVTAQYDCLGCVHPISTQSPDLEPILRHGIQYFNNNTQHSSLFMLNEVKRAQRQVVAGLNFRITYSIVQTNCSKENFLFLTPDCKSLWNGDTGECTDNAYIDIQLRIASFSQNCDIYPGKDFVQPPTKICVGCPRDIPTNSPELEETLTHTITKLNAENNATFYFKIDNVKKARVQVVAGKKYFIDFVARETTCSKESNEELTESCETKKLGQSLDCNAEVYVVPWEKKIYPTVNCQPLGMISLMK
Sequence (P01042 390-644, chain 2 of 2): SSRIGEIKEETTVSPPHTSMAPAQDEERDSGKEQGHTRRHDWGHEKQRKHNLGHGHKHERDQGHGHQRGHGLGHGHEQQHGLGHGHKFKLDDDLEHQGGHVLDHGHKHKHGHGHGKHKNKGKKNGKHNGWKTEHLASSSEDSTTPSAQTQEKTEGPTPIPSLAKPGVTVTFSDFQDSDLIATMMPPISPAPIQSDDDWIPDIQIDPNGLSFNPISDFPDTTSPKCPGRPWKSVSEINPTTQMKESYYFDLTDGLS

Sequence of ferritin (P02794 2-183): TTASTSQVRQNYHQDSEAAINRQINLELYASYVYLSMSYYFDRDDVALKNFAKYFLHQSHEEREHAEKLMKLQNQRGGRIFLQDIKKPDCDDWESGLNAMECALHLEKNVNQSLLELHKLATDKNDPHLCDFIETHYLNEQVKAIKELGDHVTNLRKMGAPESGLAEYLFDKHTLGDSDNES
Sequence of ferritin (P02792 2-175, further chain): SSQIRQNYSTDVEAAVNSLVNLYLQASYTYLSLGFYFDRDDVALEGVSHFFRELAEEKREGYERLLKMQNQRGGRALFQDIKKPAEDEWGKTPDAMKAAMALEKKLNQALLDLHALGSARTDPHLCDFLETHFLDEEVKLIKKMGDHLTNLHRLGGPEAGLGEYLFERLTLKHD

## ferritin (from UniProt P02794)
  pKd: 7.89
